From the DeepSol protein solubility set

Assay: soluble on expression in E. coli; label from the status in PepcDB or PDB records

Sequence | soluble on expression in E. coli
MGSDKIHHHHHHMDKFLYVAMSGAKQNMSALAVRANNLANANTDGFKSDLTQARSMQAFGEGLPSRVFAMTEIATSDFKAGALKTTGRDLDIAVKGDGWIAVQAPDGSEAYTRSGGLKFDNTGLLLNSRNNPVMGNSGPIVLPLPIDKLQISPDGIISIRPQGATAEVIEEVARIKLVNPDNSQMMRGEDGLFRLTSGDVAAKDPSVQVESGAIEASNVNPVEEMVALISIQRQYEMQVKMMKTAEETDQASSSLMRIG | not soluble
MGSSHHHHHHSSGLVPRGSHMEFKVIAEYFDKLEKISSRLQLTALLADLLSKSDKTIIDKVVYIIQGKLWPDFLGYPELGIGEKFLIKAISIATNTDENSVENLYKTIGDLGEVARRLKSKQQSTGILGFLGTTSKESLTVDEVYSTLSKVALTTGEGSRDLKIRLLAGLLKKADPLEAKFLVRFVEGRLRVGIGDATVLDAMAIAFGGGQSASEIIERAYNLRADLGNIAKIIVEKGIEALKTLKPQVGIPIRPMLAERLSNPEEILKKMGGNAIVDYKYDGERAQIHKKEDKIFIFSRRLENITSQYPDVVDYVSKYIEGKEFIIEGEIVAIDPESGEMRPFQELMHRKRKSDIYEAIKEYPVNVFLFDLMYYEDVDYTTKPLEARRKLLESIVKPNDYVKIAHHIQANNVEDLKSFFYRAISEGGEGVMVKAIGKDAIYQAGARGWLWIKLKRDYQSEMADTVDLVVVGGFYGKGKRGGKISSLLMAAYNPKTDSFESVCKVASGFSDEQLDELQKKLMEIKRDVKHPRVNSKMEPDIWVEPVYVAEIIGSEITISPLHTCCQDVVEKDAGLSIRFPRFIRWRDDKSPEDATTTDEILEMYNKQPKKKIESPAVDESV | soluble
MGSDKIHHHHHHMKIAQIAPLTESVPPKLYGGTERVVSYITEALVDLGHDVTLFASGDSVTNAKLEAVWPRALRLDPGIRDRVAPHMLLMELVRRQAENFDVLHFHLDYYSFSVFKRQETPFVTTMHGRLDLPEQQPVFDTFNTAPVISISNAQRHPLPQARWLTTVYHGLPEQLYTPQPVEQKYLAFLGRISPEKRVDTAIRIAGRCGMPIRIAAKVDAADREYFERDIRPLLDLPYVEFIGEIADHQKAEFLSGAHALLFPIDWPEPFGLVMIEAMACGTPVIAFNRGSVPEVLEDGVTGFIVEDEIGAVAAVNRLHKMPRAGVRQRFEERFTSHRMAQQYVNAYQSVIRAQKRSRFKVIDTSGS | not soluble
MAHHHHHHMLRIGICHFSRQEPQVIGTSVPSFRHFPYRAQDVLHLYRDFLRLIHQHPPQERADLLFRLHNEFYRRRHLTSPKMITGAIKRGEGILNVQRSMLESKTLRARGVSSREQGAQNVDGLWDQLQMLSGHVLPGLRNFRPSRNVLKGSYTQQATTQAVYSRRRL | not soluble
SLMAGLPNSSNALQQWHHLFEAEGTKRSPQAQQHLQQLLRTGLPTRKHENWKYTPLEGLINSQFVSIAGEISPQQRDALALTLDSVRLVFVDGRYVPALSDATEGSGYEVSINDDRQGLPDAIQAEVFLHLTESLAQSVTHIAVKRGQRPAKPLLLMHITQGVAGEEVNTAHYRHHLDLAEGAEATVIEHFVSLNDARHFTGARFTINVAANAHLQHIKLAFENPLSHHFAHNDLLLAEDATAFSHSFLLGGAVLRHNTSTQLNGENSTLRINSLAMPVKNEVCDTRTWLEHNKGFCNSRQLHKTIVSDKGRAVFNGLINVAQHAIKTDGQMTNNNLLMGKLAEVDTKPQLEIYADDVKCSHGATVGRIDDEQIFYLRSRGINQQDAQQMIIYAFAAELTEALRDEGLKQQVLARIGQRLPGGAREGGSHHHHHH | soluble
MSGIFGVIVSGRTPIEVVPVSDTEFTCEIVNADAINHVVVFLTGAQPFPDGIGGSGDHFQNFPPKKTQFISVYIRWPTQDGGNWHYLGFICNEKPSAIYKVAQLHKSDASHSFSQFDNQMQLYSSGSAQIGINAESLSDITGRQAADGTQASQQVKNLEKNT | soluble
MGSDKIHHHHHHMSLSAEQIVEYRAFAEQLADAAAAAIAPYFRASLDVEDKGGRLYDPVTVADKAAEDAMRELIQARYPEHGILGEEAGIAVGSSPLTWVLDPIDGTRAFITGLPLWGTLIALNDGARPVLGVMNQPFTGERFVGTPAGAWRSGTPLKTRACADLSAATLMCTTPDMFDTAERKAAFEAVAGKARLMRYGGDCYAYCMLASGFVDVIVEASLQPYDVQALMPIIEGAGGVITAWDGSSAQDGGCVVACGDPVLHAQVLEMLRHAM | not soluble
MIDDDGYRPNVGIVICNRQGQVMWARRFGQHSWQFPQGGINPGESAEQAMYRELFEEVGLSRKDVRILASTRNWLRYKLPKRLVRWDTKPVCIGQKQKWFLLQLVSGDAEINMQTSSTPEFDGWRWVSYWYPVRQVVSFKRDVYRRVMKEFASVVMSLQENTPK | soluble
MSLHNVVISGTGLFTPANSISNEELVESFNTYVHQFNSDNAAAIERGEVQALTESNAAFIEKASGIKSRFVMDKDGILDPQRMAPRLPERSNDEWSVLCQMAVAAAEQALQRAGKTAADIDGVIVACSNLQRAYPAIAIEVQAALGIQGFGFDMNVACSSATFGIQAACNSVQLGQARAILMVNPEVCTGHLNFRDRDSHFIFGDAATAVVIERADLATSEHQFDIVSTKLLTQFSNNIRNNFGFLNRAAEEGIGARDKLFVQEGRKVFRDVCPMVAELIAAHLEENQLNVSDVKRFWLHQANLSMNHLIVKKLLCREASVEEAPVILDTYANTSSAGSVIAFHKYQDDLASGSLAVLSSFGAGYSIGSVLLRKREGHHHHHH | soluble
MADPLSKEEDIQHRPDSPPLGLLDPSRIQNPLANDQLHQVPQQQNPSGFVMPEQPRQQPPPQTWQRTPTMSPANIFQGGSGTPGSQRSSTGTPNHQMGNPPQHQQQQFFHGESPAHSQGTPMTPQSAGMPGSNCGTPQSAGGPPTSVPYDYQQAQMQQQQHAQAMAAAAAAQQQQQQHLQQQQYAQNPQQMHDSPYRQHQMMQMHQHPGHPSQYPPGYPQQQAAQWQQQMYARQAAAQAQAQAQAQAQAQAQQRAAAQRVPVPYPPGAYPPGMPGPMTPGYPAQAPAAPRTTPGSAGPGTGPPGTPQRPQYPQGTNPQPQQAQFTYPPTQQMTPTGQPPGYPGMPGTPTFSSPAHQMFRQGQPTAPPGMRQYISPQAGQQQPTPGTPHRFAPPGPSGTTSSPHFAPGAPGADLRSPSLMSPNQQSQQHTPVLPRSLHNEMTSHGMRPIALPSQPLPQTQGTPQPILSASSLPPQSAGATQFVYRPQQPNQMNTMNQMNQMHHDVNPFPIQMNVDPELYLTGIHFHCFDSEKLFEDKLDRKNLEFMIKYHGGDIEFEASKFHERIHQITHVLVDSCRNTNVMTSLEHRKRIVSIQWIIDVMERERVELPWRIAHLPPPFNENFRPYLGKLFSLSGFDSSERAAISFMAEMMGAKITPFLARQNDLLIAKQPADKVTRAQEWKVPVVNFQWIADAYVCDEASPQKRPNVENPRYQLENPVMTNVNTSPNHIEGASQEFGAMMSCWKSQTIIADQAYEKARQNRKTLQNNTFFFPSKRLSDQAVAPTEDEIKSSRARLDEIKTHWEEHQEKMKDTPLSKEFYRVREPQARVSAWFGEGIDDEALTILKKKLEFLGGECVEKIRDATHVILISGRRSLVLLESIIRGKNIMDPEWIVDSYKQKMWLDTLDYFLHDKELEKEFAYNCKRSVLRARNKPVFEDIEFHVTRFVEPNQNDLVRLIELGGGNVHSEKPDPKYLAKCVETEQPFIIISCENDARFLSYLAGSKLPIYNVDLVLFAMLRQQIEPLPQYRIPIPIVVKTPVFRQPPPYTAPPKDQEPAASLASEPTRAADVLSENS | not soluble
MGHHHHHHSHMCNGSFTEKLKLLFKLHIPPAYTEVKSKDASKGDELSKEELLYFSQLHVSKPANEKEAESAKHSPEKGKGKIDIQAYLSQWQDELFKKEENIKDLPRMNQSQFIQFSKTLYNLFHEDPEEESLYQAIAVVTSLLLRMEEVGRKLHSPTSSAKGFSGTVCGSGGPSEEKTGSHLEKDPCSFREEPQWSFAFEQILASLLNEPALVRFFEKPIDVKAKLENARISQLRSRTKM | soluble
TVQVPVYSEQEYQLYLHDDAWTKAETDHLFDLSRRFDLRFVVIHDRYDHQQFKKRSVEDLKERYYHICAKLANVRAVPGTDLKIPVFDAGHERRRKEQLERLYNRTPEQVAEEEYLLQELRKIEARKKEREKRSQDLQKLITAADTTAEQRRTERKAPKKKLPQKKEAEKPAVPETAGIKFPDFKSAGVTLRSQRMKLPSSVGQKKIKALEQMLLELGVELSPTPTEELVHMFNELRSDLVLLYELKQACANCEYELQMLRHRHEALARAGVLGGPATPASGPGPASAEPAVTEPGLGPDPKDTIIDVVGAPLTPNSRKRRESASSSSSVKKAKKP | soluble
MRWVKAGELPMEAAYGATVSLPDRLIFIGGSNSSDRFSSVLSFSFDCMKDSGLICETLPPLPHAVDNMSATLLGDTLYVLGGNRNGIPSSSMFSLCLDNYSAGWTEVPFPGRPRVQPVCSSLLGKLYVFGGFTSGGDASVSTDGLCYHPESGQWQVVKAPLTTKGEPLTLTGGASVSYGDVLLICAGGVNRDIFEDAISARYQMVRESEYLLQPIEWYRFNDQLLAYNVRSGEWIRIGVPSPMLARAGSSLVVFGDILFYIGGELKPGVLEHHHHHH | not soluble
MAAVPELLEQQEEDRSKLRSVSVDLNVDPSLQIDIPDALSERDKVKFTVHTKTTLSTFQSPEFSVTRQHEDFVWLHDTLTETTDYAGLIIPPAPTKPDFDGPREKMQKLGEGEGSMTKEEFAKMKQELEAEYLAVFKKTVSTHEVFLQRLSSHPVLSKDRNFHVFLEYDQDLSVRRKNTKEMFGGFFKSVVKSADEVLFSGVKEVDDFFEQEKNFLINYYNRIKDSCAKADKMTRSHKNVADDYIHTAACLHSLALEEPTVIKKYLLKVAELFEKLRKVEGRVSSDEDLKLTELLRYYMLNIEAAKDLLYRRTKALIDYENSNKALDKARLKSKDVKLAETHQQECCQKFEQLSESAKEELINFKRKRVAAFRKNLIEMSELEIKHARNNVSLLQSCIDLFKNN | soluble
MGSDKIHHHHHHMEYEIVIGLEVHAELATKTKMYCGCTAEFGGQPNTHVCPVCMGLPGALPHINKRAVDYGIKAGLALNCSITHIGRMDRKHIFYPDNSRNYQITQDELPLCTNGYIEIELEDGSKKKIGVERIHIEEDAGKLLHTNAGTLVDFNRCGVPLAEIVSKPDMRSPREAVTYLEELKSILSCVGVSDCKMEEGSLRCDANISVMKKGAKEFGVRTEIKNMNSFKAVEKALNYEYERHIKAIESGEKLTQETRRWDDAKNETAPMRSKEEANDYRYFPEGDLVTLNIDDEWIESIRKTIPELPYQKRERFIKEFGIPKYDASVLTLTMSMADFFEKTAKISGDAKSASNWLMGDISKIMKENYVWIEDLKFTPEQLSELIKLINEGTVSNAIGKKVIIKMFETGKSPKNIIEEEGLIQNSNEDEILNIVKEVLSENEKSIEDYKNGKNRVVGFLIGLVMKKTKGKANPKIVNKLMIDELNKQ | not soluble
MGSDKIHHHHHHMSMVSSGNYAEVEKVLTEYPYIAELADHLRDQKMKVIENLDSYVSLTIKNVERLGGHAYLAKDKEEARKIAGDLVGDNKTVVFSKTNVAYEIGLREYLESKHNEVWETDLGEYLIQISKGWPTHIVAPALGMTREDAAKAVKKIDPSINENSTIEDVVAAVRKFLMSKYVKADVGITGANAVAADSGAIALVENEGNIRIDTVMPQTHISITGIDKIVPTLRDALDEVMVQSAYAGLFPPTYINVTAGPSSTADIELRRVSPATGPKNFHLILLDDGRMDASKDEGLKEALLCIKCGRCYFSCPIYRVLGKEWVSTKSPYNGPTGVMWNYITNKDPWPASYCVHSGGCKEVCPMRINIPEVIKYIKYLGSKSL | not soluble
MTENVEYIRVLLKSSQAEVQMLREQNEFRDDLLKMFKVKLEVNALNNLPVRRNLSVEISNLETKKLKTEIAFLKEELGREGKKLTIANTVHEQLKKDLEAEKRNSMFLSELLTFYQNGHQPQLPAEDQFVDFLQTETRSVKEALKEKEEEVKRLLVDMEGKTFQNLTEKGRMEEEMNDAKREAQILRNEMKSLQKNMTAKENELLGYLRDASETHTEMQKDYKIQILELQRRNRILERHLDNIQ | not soluble
